Measured values as given in a protein production outcome set (Wang et al. 2014).

Test: label from the status in PepcDB records

Sequence: MFQDVLVITVAVGRGGDGAVSFRREKFVPKGGPDGGDGGRGGSVYLRARGSVDSLSRLSKRTYKAEDGEHGRGSQQHGRGGEDLVIEVPRGTRVFDADTGELLADLTEEGQTVLVARGGAGGRGNMHFVSPTRQAPRFAEAGEEGEKRRLRLELMLIADVGLVGYPNAGKSSLLAAMTRAHPKIAPYPFTTLSPNLGVVEVSEEERFTLADIPGIIEGASEGKGLGLEFLRHIAGTRVLLYVLDAADDPFKTLKTLRKKVWAYDPGLLGRPSLVALNKVDLLEKEAVKALADALAREGLAVLPVSALTGAGLPALKEALHALVRSTPPPEMPKPVPRKEVQAGVEVVPVAEGVYEVRAPEVERYLARIKGDLMEAAGYLQEVFRRQGVEAALRAKGVRAGDLVRIGGLEFEYIPEV
- protein production: not failed

Sequence: MREEQVSDCGSITLEEWNGSSSTKLFKTATITASSSLSIQRSANRFNHVWRRVLQAFVPEASGFPGSVTPDYVGFQLWDTLQGLSTYTKMMLSTQALLSAIGVGEKSATVIGATFQWFLRDFTGMLGGILFTFYQGSNLDSNAKMWRLVADLMNDIAGVASGATRAALTQHFALQDNAADISAKEGSQETMATMMGMSLGMLLARFTSGNPMAIWLSFLSLTVFHMYVLSPEQVSSMEGVLPLWATSLRSTNSKPLHKRVQLGVRVSSLPRLDMLQLLNGVGASSYKNAKYLLAHIKGNVSVILHKDSKPADVLKSYIHAIVLANLMEKSTSFYSEGEAWIDKHYDELLHKVRLNH
- protein production: failed

Sequence: MADTHPLVTVETIVLVGLGGFAGSNLRYFVGLFFPGLQGTLLVNVCGSFALGVLVYEGLQVGALASETKLAASTGFISSFTTYSTFAVETVLTPEWAVANVVGSYALGFAGVLVGREVVRLFAGGGQ
- protein production: failed

Sequence: MHSTLLRTALLTAALGSFSHTATAEGVMVHLFQWKFNDIANECETVLGPKGFGGVQITPPAEHKQGSQVWWTVYQPVSFKNFNSFGGSEAELRSMIARCNAAGVKVYADAVFNQLASGSGTATGGGSYNAGQYQYPQFGYNDFHHSGDITNYGDSNNVWNGALYGMPDLNTGSPYVQDQIATYMKTLLGWGVAGFRIDAAKHMAPTDVKAILDKAGSPKAYLEVIGAGGESPDIQPGRYTYIDTVTDFKYGTDLAANFNGQIKNLKTLGESWGLLPSAKAFVFVVNHDRERGHGGGGMLTFMSGARYDLANTFMIAWPYGWKQVMSGYRFENMSTYETDKGAPGSTPCTDSQWNCEQRRPTIMNMALFHNRTEGQPVSNWWDNGNNQIAFGRGDKGFVAINNESGSLVASLQTALPAGEYCNLLGGNDYCSGGYVTVDGSGKASLNVPGMKAAAIIAGCTKASPCGGSALPGTKFSSMNLRGTHNAWGNTPMTVDANRVWSATLTLTGNGDATGAQRFKFDVFGNWAENYGDNEGDGIADKGSSKDILVSGAGSYRITLNESDLRYTVTPLTSNQAPVAALSPKTLSVKAGESVVFDASASHDDGGVVSYSWSSGGTAATETVRFDTPGTYTVTVTVTDAEGLTASASATVTVTDDNGTYTSVLPTLNFRGTPNAWGSLAMTLVADNQWEALVTFNGQANQRFKFDVKGDWSKNYGDTNKDGVAELAGSDILTSVTGQYRVRFNDQTLQYSLTPVSVGYAKNFASLNIRGTTNNWGSTPMSLVGDHLWQASVTFTGSGDGNGGQRFKFDVKGDWTQNYGDTNRDGVAEQAGADITTALVGVYVVRFNDQTLAYSLNAQ
- protein production: failed

Sequence: MEVARGLEGVLFTESRMCYIDGQQGKLYYYGIPIQELAEKSSFEETTFLLLHGRLPRRQELEEFSAALARRRALPAHLLESFKRYPVSAHPMSFLRTAVSEFGMLDPTEGDISREALYEKGLDLIAKFATIVAANKRLKEGKEPIPPREDLSHAANFLYMANGVEPSPEQARLMDAALILHAEHGFNASTFTAIAAFSTETDLYSAITAAVASLKGPRHGGANEAVMRMIQEIGTPERAREWVREKLAKKERIMGMGHRVYKAFDPRAGVLEKLARLVAEKHGHSKEYQILKIVEEEAGKVLNPRGIYPNVDFYSGVVYSDLGFSLEFFTPIFAVARISGWVGHILEYQELDNRLLRPGAKYVGELDVPYVPLEARE
- protein production: not failed

Sequence: MKPLRKIRLGIVGCGIAARELHLPALKNLSHLFEITAVTSRTRSHAEEFAKMVGNPAVFDSYEELLESGLVDAVDLTLPVELNLPFIEKALRKGVHVICEKPISTDVETGKKVVELSEKSEKTVYIAENFRHVPAFWKAKELVESGAIGDPVFMNWQIWVGMDENNKYVHTDWRKKPKHVGGFLSDGGVHHAAAMRLILGEIEWISAVAKDLSPLLGGMDFLSSIFEFENGTVGNYTISYSLKGNERFEITGTKGKISISWDKIVLNEEEMKVPQENSYQKEFEDFYQVVAEGKPNDLGSPVQALKDLAFIEACVRSAGNKVFVSSLL
- protein production: not failed

Sequence: MHNLANLYRTGWPGGVEKDTQKALDLYQKMIDLDVPQGFYDMGAMIGNRAGVKNPATDGLTFLDKAASLGNPPALTELGKFYIYVAKKKDLGLAYTHCAASQGYAPASYELGAYYKIVEHNFPKALVYYQVSVSQGGKSAAFFLSRVFGSETPPASAMWYAPDEKLREAYYSIYKKLEADPLEHHHHHH
- protein production: failed

Sequence: QDSDSTAAVAVLKRAVELDAESRYQQALVCYQEGIDMLLQVLKGTKESSKRCVLRTKISGYMDRAENIKKYLDQEKEDGK
- protein production: not failed

Sequence: MQDLTSAAAYYHQSMMMTTAKQNQPELPEQEQLKCPRCDSPNTKFCYYNNYNLSQPRHFCKNCRRYWTKGGALRNIPVGGGTRKSNKRSGSSPSSNLKNQTVAEKPDHHGSGSEEKEERVSGQEMNPTRMLYGLPVGDPNGASFSSLLASNMQMGGLVYESGSRWLPGMDLGLGSVRRSDDTWTDLAMNRMEKN
- protein production: failed

Sequence: MAKHEQILVLDPPSDLKFKGPFTDVVTTNLKLQNPSDRKVCFKVKTTAPRRYCVRPNSGIIDPGSIVTVSVMLQPFDYDPNEKSKHKFMVQTIFAPPNISDMEAVWKEAKPDELMDSKLRCVFEMPNENDKLND
- protein production: not failed

Sequence: MSLHAAAVGPSVLPDLREQVEQIIAEARRQGASACEVAVSLEQGLSTSVRQGEVETVEFNRDQGFGITLYAGQRKGSASTSATGEAAIRETVAAALAIARHTSEDECAGLADAALMARELPELDLYHPWSLSPEQAVERALACEAAAFAADKRVTKADGTTLNTHQGCRVYGNSHGFIGGYASTRHSLSCVMIAEGEGQMQRDYWYDVNRRGEALASAESIGRRAAERAASRLGARPVQTAEVPVLFAPEIAVGLFGHFLGAISGGSLYRKSSFLEGALGQRLFPEWLSIDERPHLVGALGSASFDSDGLATYAKPFVENGELVSYVLGTYSGRKLGLPSTANAGGVHNLFVSHGDEDQAALIRRMERGLLVTELMGQGVNLVTGDYSRGAAGYWVENGEIQFPVQEVTIAANLRDLFRRIVAVGKDIERRGNLHTGSVLVESMMVAGR
- protein production: not failed

Sequence: MIPVTSFRGKKVALFGLGGSGLVTARALVAGGAAVVAFDDNPDSVAKAQAEGIATADLHTIDWSSFSSFVLAPGVPLTHPKPHWSVDLAKAAGVEVIGDIELFIRERRVHAPDCPFIAITGTNGKSTTTALIAHILQSSGRDTQLGGNIGTAVLSLDPPKAQRFYVVECSSYQIDLAPTINPTAGILLNLTPDHLDRHGTMQHYADVKERLVAGSGTAIVGVDDSHSTLIADRIERAGVKVERISKRNVVSEGLYAEGSQILRAHGGTSSLLVDLDGIQTLRGSHNAQNAAAAIAACLAVGVSEEEIRAGLKSFPGLKHRMQPVGRRGNVTFVNDSKATNADAAAPALSSFDRIYWIAGGLPKAGGITSLSPLFPRIAKAYLIGEAAAEFAATLGEAVPYEISGTLDKAVQHAAADAEKDATAGNVVMLSPACASFDQYKNFEIRGDSFVAQVAALEGMTMLVHSGKGG
- protein production: failed

Sequence: MTGKEDEYEFEKTEKSSSLDEESTGSEVNEQKESYLDIINIIGSLMQDENYSLKNESILTINKILSFLNKEIYENKNFTEAWLIKGTVLYKTGKYNGAIDAFDGALESMSEKTSEEKLDTWIKSYGINYRYALKFKAFSLCKLGRYREALNALDEISAIYPEDPEIESHKNMLQTLENERLIRRTGNTQDQPPKHPGIWERRGKSSYKLGKYEEAVKEFDRCLESNPKDADILRNKGSALYMLGRYEEAIEAFNKSLELNPRDADAWNLKGSTLYMIGRPEEALRALDKALQRNPNIFEAWFNKGSILFELGKYKQALSAVENALRINAEDINALTLKTSILSGLKQDEK
- protein production: failed

Sequence: MCEYTYSNGKKCRRKPLKGSKYCSLHIPFEEGELLYGDRIKYIKKRAFERALERGIRNFEGVKLYDVIIVGKEINEALIFRNSIIKRLVIVTSKIKSLSLIDTTIDTLVIVNSEVDFFYVNGGSIYGVSICSVKFSSSILFRDSSIRYVMINSTEFSPKEVTTEEEFGEKVRIAGRIELANLKDVRRIALNSKYPLMAKIMEEFGIKLSLDRKKPVRVHTLTITGVEFDESPRFRKQVRIFINRFSGQLIFENLSVPGHVEIVNSRVRYPEFVHVIIHNNLVLRNTRLYSDENWNLAYLPNLLAELNVYGFIVIDNCQFNNPYLAEVFYRIARTTWEGSGDKENADEYYYLEMLARRKKVIQHYRKGPRTLKKMVKLLEVLFEFLFADLTCKYGTDWKRPVFLWMGLVIFVFPVFYALTKSVVPTSSLFDYVYFSIVTATTLGYGDLHPIGVGKVIASIEAIFGMFMWAVFLTVFARKYMR
- protein production: failed

Sequence: MIGPMWSDVIDLRDFYATSQGQLTRRLIGRSLRALWPEVRGCRVLGLGYAVPFLQPFADEAERVVAMMPAPMGAVRWPSVGPVQGALADELELPLPDRSIDRLLLIHGLEFADHAHGLLRECWRVLADNGRLMVVVPNRRATWARMERSPFANGQPYSEGQLTRLLRDRLFTPIASSTALFMPPSRSRMVMGSASLLEQIGCRLFPAFGGVVVVDCAKQIAAPVLRSAVASRRVYVGVGLSQPLQGSSRAGFKNPAPFTGVDGS
- protein production: failed

Sequence: MPSLGEAPQDLQRSQERRRIERIFAQGGKGVASPHRFPGPLPMLQNIPTHVIAGPLGAGKTSLIRHLLSQRPAAERWAVLINEFGQIGLDAALLTRDEDGIALGEVAGGCLCCVNGAPFQVGLGRLLRKARPDRLLIEPSGLGHPAQLLKQLNEAPWKGVLAVQPCVLVLDAQALAAGKPLPRAQQDALSSAGLLVLNKDELLSDSDRLRVLEQLPDLPLFWTRHAALPLAELPGLGASAEAALEQSDIPQGLAQLPAVWSDPTLPICLSQSQEDGWSIGWRWHPSQQFDLVRVEHWLQNLDWRRAKLVLHSDQGWRSGNGLDNSPLNWLPSEWRRDSRLELIFSSPQDIAVLQASLDACRLLEHHHHHH
- protein production: failed

Sequence: SRSRPAGPALLLLLLFLGAAESVRRAQPPRRYTPDWPSLDSRPLPAWFDEAKFGVFIHWGVFSVPAWGSEWFWWHWQGEGRPQYQRFMRDNYPPGFSYADFGPQFTARFFHPEEWADLFQAAGAKYVVLTTKHHEGFTNWPSPVSWNWNSKDVGPHRDLVGELGTALRKRNIRYGLYHSLLEWFHPLYLLDKKNGFKTQHFVSAKTMPELYDLVNSYKPDLIWSDGEWECPDTYWNSTNFLSWLYNDSPVKDEVVVNDRWGQNCSCHHGGYYNCEDKFKPQSLPDHKWEMCTSIDKFSWGYRRDMALSDVTEESEIISELVQTVSLGGNYLLNIGPTKDGLIVPIFQERLLAVGKWLSINGEAIYASKPWRVQWEKNTTSVWYTSKGSAVYAIFLHWPENGVLNLESPITTSTTKITMLGIQGDLKWSTDPDKGLFISLPQLPPSAVPAEFAWTIKLTGVK
- protein production: failed

Sequence: MTCEGRRTMTQPISLGHRMSLIDLYDLRMPQRTGTYVLHEENLAIIETGPSPSVPHLLAGLKALHIDPADIRYIIVTHIHLDHAGGVGVLLEHCPNATVIVHPKGKRHLADPSRLIAGAKAVYGEQFDALFDPIVPVPEERLLVKEDGETLVLSAERTLTFYDTPGHANHHFSIYDSYSGGVFTGDTIGVFYPQLQEAGLAFCLPSTSPNQFNPEAMKQSAERLEKLNPTRIYFGHFGALDQPEEAFRQLRFWLPKFVAAGKEVIARHPEAPAAEQAKAVTKLLHNDITAFLNECSIPASSPVYKVIELDLQVCAMGIIDYWRKQRLEHHHHHH
- protein production: not failed

Sequence: NGKLFLVGTPIGNLKDITLRALETLQNCDVIAAEDTRQSLKLLNHFDIKKPLISYHKFNENNRSSELMDMVREGKKVALVTDAGMPGISDPGSVIVEKFIENNLEFEVIPG
- protein production: not failed
